# Experimental data published in the supplement of paper PMC10567573.
# B1: SPSB1 (parent)
# chain: DMRDPTYRPLKQELQGLDYCKPTR
# Variants of: B1
# Assay: protein stability index of a GFP-peptide fusion (GPS, HEK-293T) (PSI 1-6); higher = more stable
# Settings: c terminus: a fixed tail appended
# 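Note: lentivirally expressed fusions sorted by FACS into six bins by GFP to DsRed ratio, PSI derived from sequencing read proportions per bin multiplied by bin number.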
row,Variant,protein stability index
1,DMRDPTYRPLKQELQGLDYCKPLR [T23L],2.99
2,DMRDPTYRPLKQELQGLDYCKPYR [T23Y],2.5
3,DMRDPTYRPLKQELQGLDYCKPVR [T23V],3.29
4,DMRDPTYRPLKQELQGLDYCKPMR [T23M],2.87
5,DMRDPTYRPLKQELQGLDYCKPCR [T23C],3.3
6,DMRDPTYRPLKQELQGLDYCKPIR [T23I],2.52
7,DMRDPTYRPLIQELQGLDYCKPTR [K11I],2.88
8,DMRDPTYRPLGQELQGLDYCKPTR [K11G],3.17
9,DMRDPTYRPLEQELQGLDYCKPTR [K11E],4.03
10,DMRDPTYRPLQQELQGLDYCKPTR [K11Q],3.62
11,DMRDPTYRPLMQELQGLDYCKPTR [K11M],3.71
12,DMRDPTYRPLVQELQGLDYCKPTR [K11V],3.45
13,DMRDPTYRPLKQELQGLDYCTPTR [K21T],2.63
14,DMRDPTYRPLKQELQGLDYCCPTR [K21C],2.44
15,DMRDPTYRPLKQELQGLDYCSPTR [K21S],2.92
16,DMRDPTYRPLKQELQGLDYCPPTR [K21P],3.95
17,DMRDPTYRPLKQELQGLDYCEPTR [K21E],2.76
18,DMRDPTYRPLKQELQGLDYCIPTR [K21I],1.87
19,DMRDPTYRPLKQELQGLDYCLPTR [K21L],3.38
20,DMRDPTYRPLKQELQGLDYCRPTR [K21R],3.5
21,DMRDPTYRPLKQELQNLDYCKPTR [G16N],3.24
22,DMRDPTYRPLKQELQALDYCKPTR [G16A],3.73
23,DMRDPTYRPLKQELQQLDYCKPTR [G16Q],3.94
24,DMRDPTYRPLKQELQWLDYCKPTR [G16W],3.12

row,Variant,protein stability index
1,DMRDPTYRPLKQELQSLDYCKPTR [G16S],3.32
2,DMRDPTYRPLKQELQCLDYCKPTR [G16C],3.17
3,DMRDPTYSPLKQELQGLDYCKPTR [R8S],2.68
4,DMRDPTYPPLKQELQGLDYCKPTR [R8P],3.17
5,DMRDPTYVPLKQELQGLDYCKPTR [R8V],3.27
6,DMRDPTYKPLKQELQGLDYCKPTR [R8K],3.1
7,DMRDPTYEPLKQELQGLDYCKPTR [R8E],3.55
8,DMRDPTYGPLKQELQGLDYCKPTR [R8G],3.43
9,DMRDPTYCPLKQELQGLDYCKPTR [R8C],2.79
10,DMRDPTYFPLKQELQGLDYCKPTR [R8F],2.6
11,DMRDPTYRPLKQELQGLDYEKPTR [C20E],4.41
12,DMRDPTYRPLKQELQGLDYRKPTR [C20R],4.42
13,DMRDPTYRPLKQELQGLDYKKPTR [C20K],4.6
14,DMRDPTYRPLKQELQGLDYTKPTR [C20T],3.71
15,DMRDPTYRPLKQELQGLDYHKPTR [C20H],2.93
16,DMRDPTYRPLKQELQGLDYGKPTR [C20G],4.3
17,DMRDPTYRPLKQELQGLDYDKPTR [C20D],4.05
18,DMRDPTYRPLKQELQGLDYAKPTR [C20A],3.34
19,DMRDPTYRPLKQELQGLDYQKPTR [C20Q],2.8
20,CMRDPTYRPLKQELQGLDYCKPTR [D1C],3.94
21,LMRDPTYRPLKQELQGLDYCKPTR [D1L],2.36
22,RMRDPTYRPLKQELQGLDYCKPTR [D1R],3.32
23,PMRDPTYRPLKQELQGLDYCKPTR [D1P],3.82
24,FMRDPTYRPLKQELQGLDYCKPTR [D1F],3

row,Variant,protein stability index
1,NMRDPTYRPLKQELQGLDYCKPTR [D1N],3.12
2,QMRDPTYRPLKQELQGLDYCKPTR [D1Q],2.83
3,HMRDPTYRPLKQELQGLDYCKPTR [D1H],2.94
4,DMRDFTYRPLKQELQGLDYCKPTR [P5F],3
5,DMRDKTYRPLKQELQGLDYCKPTR [P5K],3.28
6,DMRDWTYRPLKQELQGLDYCKPTR [P5W],2.76
7,DMRDYTYRPLKQELQGLDYCKPTR [P5Y],2.93
8,DMRDMTYRPLKQELQGLDYCKPTR [P5M],3.57
9,DMRDTTYRPLKQELQGLDYCKPTR [P5T],3.17
10,DMRDATYRPLKQELQGLDYCKPTR [P5A],3.28
11,DMRDNTYRPLKQELQGLDYCKPTR [P5N],2.93
12,DMRDGTYRPLKQELQGLDYCKPTR [P5G],3.19
13,DMRDETYRPLKQELQGLDYCKPTR [P5E],3.65
14,DMRDPTYRPLKQEMQGLDYCKPTR [L14M],3.68
15,DMRDPTYRPLKQEVQGLDYCKPTR [L14V],4.05
16,DMRDPTYRPLKQETQGLDYCKPTR [L14T],4.28
17,DMRDPTYRPLKQECQGLDYCKPTR [L14C],3.71
18,DMRDPTYRPLKQEWQGLDYCKPTR [L14W],2.96
19,DMRDPTYRPLKQEHQGLDYCKPTR [L14H],4.03
20,DMRDPTYRPLKQEEQGLDYCKPTR [L14E],2.43
21,DMRDPTYRPLKQEKQGLDYCKPTR [L14K],4.5
22,DMRDPTYRPLKQESQGLDYCKPTR [L14S],4.24
23,DMRDPTYRPLKYELQGLDYCKPTR [Q12Y],3.12
24,DMRDPTYRPLKSELQGLDYCKPTR [Q12S],3.25

row,Variant,protein stability index
1,DMRDPTYRPLKKELQGLDYCKPTR [Q12K],2.94
2,DMRDPTYRPLKFELQGLDYCKPTR [Q12F],2.67
3,DMRDPTYRPLKEELQGLDYCKPTR [Q12E],2.87
4,DMRDPTYRPLKLELQGLDYCKPTR [Q12L],3.84
5,DMRDPTYRPLKRELQGLDYCKPTR [Q12R],3.18
6,DMRDPTYRPMKQELQGLDYCKPTR [L10M],3.25
7,DMRDPTYRPAKQELQGLDYCKPTR [L10A],3.54
8,DMRDPTYRPKKQELQGLDYCKPTR [L10K],3.22
9,DMRDPTYRPWKQELQGLDYCKPTR [L10W],3.24
10,DMRDPTYRPFKQELQGLDYCKPTR [L10F],3.56
11,DMRDPTYRPYKQELQGLDYCKPTR [L10Y],2.81
12,DMRDPTYRPGKQELQGLDYCKPTR [L10G],3.49
13,DMRDPTYRPRKQELQGLDYCKPTR [L10R],2.93
14,DMRDPTYRPSKQELQGLDYCKPTR [L10S],3.56
15,DMRDPTYRPLKQELQGIDYCKPTR [L17I],4.02
16,DMRDPTYRPLKQELQGRDYCKPTR [L17R],3.8
17,DMRDPTYRPLKQELQGMDYCKPTR [L17M],4.12
18,DMRDPTYRPLKQELQGSDYCKPTR [L17S],4.18
19,DMRDPTYRPLKQELQGGDYCKPTR [L17G],3.51
20,DMRDPTYRPLKQELQGTDYCKPTR [L17T],4.29
21,DMRDPTYRPLKQELQGKDYCKPTR [L17K],3.96
22,DMRDPTYRPLKQELQGADYCKPTR [L17A],3.82
